A short description of data set [1]: Particle loading / insulin encapsulation efficiency by bicinchoninic acid assay (BCA). In kind it is physicochemical. The settings on record: insulin concentration of the dosed preparation. The procedure:
Next, the mixture of re-hydrated particles containing the active biomolecule was purified and separated from the free active biomolecule not loaded in the particles by a dialysis step overnight. The dialysis was performed in a 100 kD dialysis membrane in the buffer used for the formulation process as discussed above, at a buffer volume at least 2000× the volume of the solution to be purified (e.g., 0.1M sodium bicarbonate, pH 8.2, buffer). The dialysate was concentrated in centrifugal unit to the preferred concentration. Alternatively, the purification and separation step could be performed with tangential flow filtration (TFF). The described purification steps are optional and were not performed for all formulations. Particle morphological characteristics were analyzed with dynamic light scattering methods. Particle loading efficiency was quantified with a bicinchoninic acid assay (BCA).
The insulin encapsulation efficiency of the complex lipid formulations (the amount of insulin that was trapped to the vesicles) was also characterized, and the results ranged consistently from 25-35%. Similar characterizations were measured for other formulations of complex lipid particles.

Details of data set [2]: species or system mice. The settings on record: mouse, in vivo. The procedure: The animals used were C57BL6 female 8-week-old mice (Jax #0664). […] Mice were weighed, and a pre-bleed sample was taken (through tail vein, retro-orbital or submandibular means). The mice were fasted overnight before being dosed via intracolonic administration with 50 uL of a given insulin-loaded complex lipid formulation (Table 8). Non-terminal bleeds at 30 minutes and 60 minutes post-dose were taken, alternating routes of collection. A terminal bleed at 120 minutes post-dose via cardiac puncture was also taken. Whole blood samples from the pre-bleed, 30 minute, 60 minute, and 120 minute bleeds were processed for plasma then stored at −80° C. Insulin levels were quantified by MSD assay. Exposure to the active biomolecule (e.g. insulin) was measured as area under the curve (AUC) of the four measured timepoints, and dose was measured as BCA*dose volume (0.05 mL). Therefore, the data in Table 9 for each mouse is shown as systemic levels of insulin (or exposure normalized by dose). […] Unexpectedly, 20 of 22 (>90%) different complex lipid formulations out-performed free IC insulin.

For the substance “Control: free insulin given by intracolonic (IC) administration, not encapsulated”, the “BCA (Insulin mg/mL)” value in data set [1] is “Avg = 1.16 mg/mL”. In data set [2], the “Systemic levels of insulin (exposure AUC normalized by dose), Avg” value is “Avg = 290.1”.

These data come from patent US20250295587A1, “COMPLEX LIPID NANOPARTICLES ENCAPSULATING POLYPEPTIDES AND USES THEREOF” (SAIL BIOMEDICINES, INC., priority 2022, published 2025).
